Assay results reported in doi:10.1101/459164.

Assays:
[1] = biological target: MT145 SOSIP.664 trimer (chimpanzee SIVcpzPtt MT145 Env, wild-type V2) (SIVcpzPtt (chimpanzee SIV), isolate MT145)
[2] = biological target: MT145K SOSIP.664 trimer (chimpanzee SIVcpzPtt MT145 Env, Q171K) (SIVcpzPtt (chimpanzee SIV), isolate MT145); assay: cryo-EM structure

| Substance | stoichiometry N [1] | stoichiometry N [2] |
| --- | --- | --- |
| MT145 SOSIP.664 trimer (chimpanzee SIVcpzPtt MT145 Env, wild-type V2) (complex) | 3 | – |
| MT145K SOSIP.664 trimer (chimpanzee SIVcpzPtt MT145 Env, Q171K) (complex) | – | 3 |
